The test system of this series is ATP. Nature of the series: switch fluorescence ratio, 500 uM ATP over buffer (Cy3 cluster intensity, sum of 5 cycles each) (fold (ratio)); higher = stronger signal-on switching upon ATP binding; sequences stand for … in TCGTCGGCAGCGTCAGATGTGTATAAGAGACAGTTTTTTTTTTTTTTTTTTTTTTTTT…TC. Conditions: aptamer strand: ATP DNA aptamer (quencher-CACCTGGGGGAGTATTGCGGAGGAAGG + anchor), 100 nM annealed; ATP concentration: 500 uM. The procedure, abridged: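 Cy3-labelled switching-strand clusters on a modified Illumina MiSeq flow-cell were annealed to 100 nM quencher-labelled ATP aptamer, imaged in selection buffer, then imaged after 15 min with 500 uM ATP at 22 °C. Five buffer/ATP cycles ran, with NaOH stripping and re-annealing between them. The fluorescence ratio is summed target-cycle over summed buffer-cycle Cy3 intensity per cluster, averaged per switch-domain sequence. Clusters outside 100-1000 RFU were excluded.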

The record followed here is the supplement of paper PMC10126150.

± gives the standard deviation of the averaged measurements.
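Also: ATP exposure 15 min at 22 °C before imaging.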

Take CCGGATTATA: the switch fluorescence ratio was 1.046 ± 0.0059. In the case of CCGGATTTTG, the switch fluorescence ratio was 0.981 ± 0.012. As to CCGGCCGGGG, the switch fluorescence ratio was 1.01 ± 0.059.

As for CCGGCGGTTT, the switch fluorescence ratio came out at 1.04 ± 0.029.

Take CCGGCTTGCT: the switch fluorescence ratio was 1.03 ± 0.036. The result for CCGGCTTTAG reads 0.99 ± 0.015.

As for CCGGGAGAAA, the switch fluorescence ratio amounted to 1.28 ± 0.02. The result for CCGGGAGGTA reads 0.991 ± 0.021; that for CCGGGCTGGG, 1.03 ± 0.018; that for CCGGGGAACG, 1.08 ± 0.048. The result for CCGGGGAATG reads 1.04 ± 0.052. On to CCGGGGAGGA, for which the switch fluorescence ratio was 1.06 ± 0.026.

Consider CCGGGGAGGG, for which the switch fluorescence ratio worked out at 1.08 ± 0.053. As for CCGGGGATTG, the switch fluorescence ratio is 1.01 ± 0.027.

As for CCGGGGCTGG, the switch fluorescence ratio is 1.04 ± 0.037. In the case of CCGGGGCTTT, the switch fluorescence ratio worked out at 1.17 ± 0.021.

For CCGGGGGAAC, the switch fluorescence ratio was determined as 1.14 ± 0.09. Consider CCGGGGGACA, for which the switch fluorescence ratio was 1.1 ± 0.17. As to CCGGGGGATC, the switch fluorescence ratio is 1.1 ± 0.017. As for CCGGGGGCTA, the switch fluorescence ratio came to 2.69 ± 1.9. CCGGGGGGAG: the switch fluorescence ratio amounted to 1.02 ± 0.045. Regarding CCGGGGGGCC, the switch fluorescence ratio amounted to 1.08 ± 0.038. Regarding CCGGGGTCGT, the switch fluorescence ratio was determined as 1.02 ± 0.012. Consider CCGGGGTCTG, for which the switch fluorescence ratio is 0.995 ± 0.035. The result for CCGGGTCTTT reads 1.002 ± 0.0064; that for CCGGGTTTTT, 1.12 ± 0.13; that for CCGGTCAGTG, 1.066 ± 0.0088. For the sequence CCGGTTGCTG, the switch fluorescence ratio was found to be 1.12 ± 0.066.

On to CCGTAAAACT, for which the switch fluorescence ratio is 2.46 ± 1.2. The result for CCGTATATAT reads 2.55 ± 0.096; that for CCGTCAACTA, 1.96 ± 0.22; that for CCGTCATCTT, 1.024 ± 0.0072. For the sequence CCGTCGGGGT, the switch fluorescence ratio came to 1.09 ± 0.025.

Regarding CCGTGGCGTG, the switch fluorescence ratio turned out to be 1.01 ± 0.033. Turning to CCGTGGCTGT, the switch fluorescence ratio was found to be 1.31 ± 0.068. Consider CCGTGGGATG, for which the switch fluorescence ratio is 0.986 ± 0.031. On to CCGTGGGGGT, for which the switch fluorescence ratio was determined as 1.054 ± 0.0029.

Take CCGTGTACGG: the switch fluorescence ratio came to 0.999 ± 0.054. For the sequence CCGTGTAGGG, the switch fluorescence ratio was 1.01 ± 0.034.

As for CCGTTACCTG, the switch fluorescence ratio was 0.974 ± 0.015. On to CCGTTAGCTT, for which the switch fluorescence ratio was determined as 2.2 ± 0.079. For CCGTTGAGCG the value was 1.03 ± 0.03; for CCGTTGGGGT, 1.11 ± 0.13; for CCGTTGTAAG, 1.0184 ± 0.001. In the case of CCGTTTGGTC, the switch fluorescence ratio was determined as 1.02 ± 0.019. CCGTTTGTGC: the switch fluorescence ratio came out at 1.21 ± 0.063. In the case of CCGTTTTGCG, the switch fluorescence ratio was found to be 1.02 ± 0.027. For CCTAAATTAT the value was 1.02 ± 0.035; for CCTAAATTTT, 1.01 ± 0.024; for CCTAACAGTT, 1.02 ± 0.0039.

Consider CCTAACTAAA, for which the switch fluorescence ratio amounted to 0.995 ± 0.028. For the sequence CCTAACTTAG, the switch fluorescence ratio is 1.021 ± 0.0029. For CCTAAGTGGG the value was 1.02 ± 0.034; for CCTAATAGGG, 0.9929 ± 0.0033.

CCTAATTTGG: the switch fluorescence ratio was 0.974 ± 0.031. With CCTACACTGG, the switch fluorescence ratio is 1.13 ± 0.048. CCTACGTTT: the switch fluorescence ratio came to 1.06 ± 0.063.

As for CCTAGAGGGT, the switch fluorescence ratio was determined as 1.07 ± 0.024. CCTAGCATGG: the switch fluorescence ratio amounted to 2.05 ± 0.21. Take CCTAGCGGTG: the switch fluorescence ratio stood at 1.12 ± 0.03.

On to CCTAGCTG, for which the switch fluorescence ratio was found to be 1.02 ± 0.056. For the sequence CCTAGGAGCC, the switch fluorescence ratio was found to be 1.05 ± 0.026.

Turning to CCTAGGATTC, the switch fluorescence ratio came to 1.01 ± 0.043. Take CCTAGGGGTT: the switch fluorescence ratio amounted to 1.09 ± 0.064. As for CCTAGTACCG, the switch fluorescence ratio is 0.992 ± 0.069. In the case of CCTAGTGGGG, the switch fluorescence ratio worked out at 1.04 ± 0.06.

Regarding CCTATGATTG, the switch fluorescence ratio was found to be 0.981 ± 0.023.

As to CCTATGGCGG, the switch fluorescence ratio was 1.07 ± 0.017. With CCTATTCTGA, the switch fluorescence ratio amounted to 0.97 ± 0.068. As to CCTCCAGGTT, the switch fluorescence ratio was 3.69 ± 3.2.

Consider CCTCGGTGCG, for which the switch fluorescence ratio was determined as 1.02 ± 0.0087. For the sequence CCTCGTTTTT, the switch fluorescence ratio came out at 1.11 ± 0.053. On to CCTCTATTCA, for which the switch fluorescence ratio amounted to 1.06 ± 0.019. Take CCTCTATTGG: the switch fluorescence ratio came out at 1.045 ± 0.0041.

For CCTCTTAACT, the switch fluorescence ratio is 1.13 ± 0.037. CCTCTTCATA: the switch fluorescence ratio was found to be 2.54 ± 0.28. Turning to CCTCTTTTTT, the switch fluorescence ratio worked out at 1.1 ± 0.035. The result for CCTGAATTTC reads 1.12 ± 0.14.
